From patent US20170130210A1
Where “and” joins values, the source holds several entries; their conditions need not be identical. Equal entries are not always repeated.

Molecular target: Pfk-I with the C-terminal degradation tag DAS+4, expressed from the pfkA locus of E. coli strain IB1863 (E. coli) (UniProt P0A796)
Assay: cell-based or functional assay

Chain of Pfk-I with the C-terminal degradation tag DAS+4, expressed from the pfkA locus of E. coli strain IB1863 (E. coli) (P0A796 1-320, tags or fused parts left off): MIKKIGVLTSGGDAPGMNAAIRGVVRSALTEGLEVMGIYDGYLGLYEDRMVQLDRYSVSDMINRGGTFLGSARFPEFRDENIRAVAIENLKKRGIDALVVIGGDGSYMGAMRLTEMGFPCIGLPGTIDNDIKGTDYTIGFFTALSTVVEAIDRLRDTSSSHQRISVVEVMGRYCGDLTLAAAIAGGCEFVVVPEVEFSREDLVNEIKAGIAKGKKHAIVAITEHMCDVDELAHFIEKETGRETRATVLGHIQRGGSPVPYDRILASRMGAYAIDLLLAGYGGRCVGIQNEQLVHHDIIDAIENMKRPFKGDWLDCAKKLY

Pfk activity in crude lysate of IB1863 after aTc induction of SspB, relative to wild-type (% of wild-type): 35 and 18
Substance: SspB, native E. coli adaptor protein (from UniProt P0AFZ3 1-165)
